The values below come from US20060286112A1 (published 2006).

Numbering of substitutions follows the chain as printed.

To fix the notation:
B1: 6.44 (antibody, V domains shown)
VH: QVQLQESGPGLVKPSQTLSLICTVSGGSISRGDSYWSWIRQHPGKGLEWIGYIYYSGSTFYNPSLKSRVTISVDTSKNQFSLKLSSVTAADTAVYYCAREDRIFGVVDYWGQGTLVTVSS
VL: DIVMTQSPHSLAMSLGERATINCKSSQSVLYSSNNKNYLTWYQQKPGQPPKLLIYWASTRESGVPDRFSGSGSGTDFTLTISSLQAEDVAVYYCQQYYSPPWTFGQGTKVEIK
notes: human IgG2 or IgG4
B2: 6.17 (antibody, V domains shown)
VH: EVQLVQSGAEVKKPGESLRISCKGSGYSVSSYWIGWVRQMPGKGLEWMGIIYPGDSDTRYSPSFQGQVTISADKSISTAFLQWISLKASDTAMYYCARLQGDCSGGSCYGHFDYWGQGTLVTVS
VL: EIVLTQSPGTLSLSPGERATLSCRASQTISSGYLAWYQQKPAQAPRLLIYVASRRATGIPDRFSGSGSGTDFTLTISRLEPEDFAVYYCQQYGSSSWTFGQGTTVEIK
notes: human IgG2 or IgG4
B3: 6.18 (antibody, V domains shown)
VH: B2 VH with S30T, F80Y, I84S, S107T
VL: B2 VL with T28S, I29V, G32S, S94T
notes: human IgG2 or IgG4
B4: 2.7 (antibody, V domains shown)
VH: EVQLVESGGGLVKPGGSLRLSCAASGFTFSNAWMSWVRQAPGKGLEWVGRIKRKTDGETTDYAAPVKGRFTISRDDSRNTLYLQMNSLKTEDTAVYYCTIYTYYYGMDVWGQGTTVTVSS
VL: DIQMTQSPSSLSASVGDRVTITCRASQSINNYLNWYQQKPGKAPKLLIYAASSLESGVPSRFSGSGSGTDFTLTISSLQPEDFATYYCQQSYSTPPTFGQGTKVEIK
notes: human IgG2 or IgG4; also called antibody 2.7
B5: 7.7 (antibody, V domains shown)
VH: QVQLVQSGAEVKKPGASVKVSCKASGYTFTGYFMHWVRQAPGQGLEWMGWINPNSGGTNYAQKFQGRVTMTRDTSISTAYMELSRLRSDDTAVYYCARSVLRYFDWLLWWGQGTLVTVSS
VL: DIVMTQSPESLAVSLGERTTINCKSSQSVLFSSNNENHLAWYQQKPGQPPKLLIYWASTRESGVPDRFSGSGSGTDFTLTISSLQAEDVAVYYCQQYYITPCSFGQGTKLEIK
notes: human IgG2 or IgG4
B6: 2.19 (antibody, V domains shown)
VH: QVQLQESGPGLVKPSETLSLTCTVSGDSISSYYWSWIRQPPGKGLEWIGYVYYSGSTNYNPSLKSRVTMSVDTSKNQFSLKLSSVTAADTAVYYCARDLELYAFDIWGQGTMVTVSS
VL: EIVLTQFPGTLSLSPGERVTLSCRASQSVSSTYVVWYQQKPGQAPRLLIYGASSRATGIPDRFSGSGSGTDFTLTISRLEPEDFAVYYCQQHGSSPWTFGQGTKVEIK
notes: human IgG2 or IgG4
B7: 7.11 (antibody, V domains shown)
VH: QVQLQESGPGLVKPPETLSLTCTVSGGSISSHYWSWIRQPAGKGLEWIGRIYTSGSTNYNPPLKSRVTMSVDTSKNQFSLKLSSVTAADTAVYYCAREGYDFWSGYYNYYYGMDVWGQGTTVTVS
VL: EIVLTQSPGTLSLSPGERATLSCRASQSVISSYLAWYQQKPGQAPRLLIYGASSRATGIPDRFSGSGSGTDFTLTISRLEPEDFAVYYCQQYGSAFTFGGGTKVEIK

The first assay addresses T1, human VLA-1 (alpha 1/beta 1, CD49a/CD29) on IL-2 stimulated human PBMC / T cells (human, UniProt P56199 29-1179; P05556 21-798). Nature of the assay: cell-based or functional assay.
Turning to B1, the “% adhesion of T cells to collagen IV vs no antibody, 0.5 nM mAb, 10 ng/ml PMA” value is 89.8% and the “% adhesion of T cells to collagen IV vs no antibody, 5 nM mAb, 10 ng/ml PMA” value was determined as 56.6%.

On to B2, for which the “% adhesion of T cells to collagen IV vs no antibody, 0.5 nM mAb, 10 ng/ml PMA” value came to 93.7% and the “% adhesion of T cells to collagen IV vs no antibody, 5 nM mAb, 10 ng/ml PMA” value stood at 63.7%.

With B3, the “% adhesion of T cells to collagen IV vs no antibody, 0.5 nM mAb, 10 ng/ml PMA” value stood at 98.4% and the “% adhesion of T cells to collagen IV vs no antibody, 5 nM mAb, 10 ng/ml PMA” value came to 55.5%.

For the molecule B4, the “% adhesion of T cells to collagen IV vs no antibody, 0.5 nM mAb, 10 ng/ml PMA” value stood at 85.4% and the “% adhesion of T cells to collagen IV vs no antibody, 5 nM mAb, 10 ng/ml PMA” value stood at 34.8%.

Regarding B5, the “% adhesion of T cells to collagen IV vs no antibody, 0.5 nM mAb, 10 ng/ml PMA” value is 96.6% and the “% adhesion of T cells to collagen IV vs no antibody, 5 nM mAb, 10 ng/ml PMA” value was 91.9%.

The target in the next assay is T2, human VLA-1 α1 subunit (CD49a), full-length, on transfected CHO cells (human, UniProt P56199 29-1179). Description: cell-based or functional assay.
As to B1, the “relative inhibition at an optimal concentration, CHO-VLA-1 adhesion to collagen IV” value (shortened to “relative inhibition”) is > 80%.

For B6, the “relative inhibition” value was > 80%.

For the molecule B2, the “relative inhibition” value is > 80%.

As for B3, the “relative inhibition” value is > 80%.

Turning to B4, the “relative inhibition” value is > 80%.

In a further assay the target is T3, human CD49a I domain E48K (human, UniProt P56199 151-364, E48K).
T3 construct: domain: I domain; not shown: myc and His tags
Nature of the assay: ELISA on secreted mutant I domain. Background: In an ELISA, binding on a coated surface is turned into a signal by an enzyme label.
In the case of B1, the binding result was “binds”.

On to B6, for which the binding result is “binds”.

Regarding B2, the binding result is “binds”.

For the molecule B3, the binding result is “binds”.

For B4, the binding result was “binds”.

As to B5, the binding result is given as “no binding”.

The next assay deals with T4, human CD49a I domain S162H (human, UniProt P56199 151-364, S162H).
T4 construct: domain: I domain; not shown: myc and His tags
Nature of the assay: ELISA on secreted mutant I domain.
In the case of B1, the binding result is reported as “binds”.

Consider B6, for which the binding result is reported as “binds”.

Take B2: the binding result was “no binding”.

On to B3, for which the binding result is “no binding”.

On to B4, for which the binding result is “binds”.

Consider B5, for which the binding result is given as “binds”.

In the next assay the target is T5, human CD49a I domain E66A (human, UniProt P56199 151-364, E66A).
T5 construct: domain: I domain; not shown: myc and His tags
Description: ELISA on secreted mutant I domain.
In the case of B1, the binding result is listed as “binds”.

For the molecule B6, the binding result is recorded as “no binding”.

Consider B2, for which the binding result is listed as “binds”.

For the molecule B3, the binding result is recorded as “binds”.

For the molecule B4, the binding result is reported as “no binding”.

Take B5: the binding result is “binds”.

A further assay has as its target T6, human CD49a I domain I11F (human, UniProt P56199 151-364, I11F).
T6 construct: domain: I domain; not shown: myc and His tags
Nature of the assay: ELISA on secreted mutant I domain.
B1: the binding result was “binds”.

As for B6, the binding result is on record as “binds”.

B2: the binding result is reported as “binds”.

As for B3, the binding result is reported as “binds”.

Regarding B4, the binding result is reported as “binds”.

For B5, the binding result is on record as “binds”.

The next assay has as its target T7, human CD49a I domain with residues 91-96 VQRGGR replaced by mouse GRRGGL (human, UniProt P56199 151-364, V91G; Q92R; R96L).
T7 construct: domain: I domain; also called V91G, Q92R, R96L; not shown: myc and His tags
Description: ELISA on secreted mutant I domain.
As to B1, the binding result was “no binding”.

Turning to B6, the binding result was “no binding”.

Turning to B2, the binding result is given as “no binding”.

As to B3, the binding result was “no binding”.

With B4, the binding result is “no binding”.

As to B5, the binding result was “binds”.

A further assay has as its target T8, human CD49a I domain K142Q (human, UniProt P56199 151-364, K142Q).
T8 construct: domain: I domain; text prints KI42Q once; not shown: myc and His tags
Nature of the assay: ELISA on secreted mutant I domain.
Take B1: the binding result is on record as “binds”.

For the molecule B6, the binding result is listed as “binds”.

For the molecule B2, the binding result is reported as “binds”.

Regarding B3, the binding result is reported as “binds”.

For B4, the binding result is recorded as “binds”.

In the case of B5, the binding result is reported as “binds”.

The next assay addresses T9, human CD49a I domain K88N (human, UniProt P56199 151-364, K88N).
T9 construct: domain: I domain; not shown: myc and His tags
Nature of the assay: ELISA on secreted mutant I domain.
Turning to B1, the binding result is given as “binds”.

For the molecule B6, the binding result was “binds”.

On to B2, for which the binding result is “binds”.

Regarding B3, the binding result is on record as “binds”.

Turning to B4, the binding result was “binds”.

As for B5, the binding result is “binds”.

In a further assay the target is T10, human CD49a I domain T204A (human, UniProt P56199 151-364, T204A).
T10 construct: domain: I domain; not shown: myc and His tags
Nature of the assay: ELISA on secreted mutant I domain.
For B1, the binding result is “binds”.

As to B6, the binding result is reported as “binds”.

For B2, the binding result is recorded as “binds”.

As for B3, the binding result is “binds”.

As for B4, the binding result is “binds”.

Consider B5, for which the binding result is reported as “binds”.

The next assay deals with T2, human VLA-1 α1 subunit (CD49a), …. Nature of the assay: cell-based or functional assay. The source holds these as a separate data set.
In the case of B1, the “IC50, adhesion of CHO-VLA-1 cells to collagen IV” value (shortened to “IC50, adhesion of CHO-VLA-1 cells”) turned out to be 0.08 nM.

B6: the “IC50, adhesion of CHO-VLA-1 cells” value was 0.47 nM.

As for B2, the “IC50, adhesion of CHO-VLA-1 cells” value was 0.27 nM.

With B3, the “IC50, adhesion of CHO-VLA-1 cells” value was 0.19 nM.

With B4, the “IC50, adhesion of CHO-VLA-1 cells” value amounted to 0.08 nM.

In the case of B5, the “IC50, adhesion of CHO-VLA-1 cells” value was 0.59 nM.

A further assay addresses T1, human VLA-1 (alpha 1/beta 1, …). Description: cell-based or functional assay. The source holds these as a separate data set.
For the molecule B1, the “% adhesion of IL-2 activated T cells to collagen IV vs no antibody, 10 µg/ml, +PMA” value (“% adhesion … vs no antibody, 10 µg/ml, +PMA” for short) is 23.7% and the “% adhesion of IL-2 activated T cells to collagen IV vs no antibody, 10 µg/ml, -PMA” value (from here on “% adhesion … vs no antibody, 10 µg/ml, -PMA”) worked out at 49.2%.

B2: the “% adhesion … vs no antibody, 10 µg/ml, +PMA” value was 22.5% and the “% adhesion … vs no antibody, 10 µg/ml, -PMA” value is 64.1%.

Regarding B3, the “% adhesion … vs no antibody, 10 µg/ml, +PMA” value amounted to 31.2% and the “% adhesion … vs no antibody, 10 µg/ml, -PMA” value turned out to be 58.5%.

Turning to B4, the “% adhesion … vs no antibody, 10 µg/ml, +PMA” value is 18% and the “% adhesion … vs no antibody, 10 µg/ml, -PMA” value was 30%.

Turning to B5, the “% adhesion … vs no antibody, 10 µg/ml, +PMA” value was determined as 27.4% and the “% adhesion … vs no antibody, 10 µg/ml, -PMA” value amounted to 40.1%.

The target is the same in a further assay. Nature of the assay: cell-based or functional assay. The source holds these as a separate data set.
As for B1, the “% adhesion of T cells to collagen IV vs no antibody, 0.5 nM mAb, no PMA” value (from here on “% adhesion of T cells … 0.5 nM mAb, no PMA”) is 70.7% and the “% adhesion of T cells to collagen IV vs no antibody, 5 nM mAb, no PMA” value (“% adhesion … vs no antibody, 5 nM mAb, no PMA” for short) was 25%.

B2: the “% adhesion of T cells … 0.5 nM mAb, no PMA” value was determined as 76.3% and the “% adhesion … vs no antibody, 5 nM mAb, no PMA” value was determined as 22.3%.

For B3, the “% adhesion of T cells … 0.5 nM mAb, no PMA” value turned out to be 85% and the “% adhesion … vs no antibody, 5 nM mAb, no PMA” value was found to be 19.7%.

Regarding B4, the “% adhesion of T cells … 0.5 nM mAb, no PMA” value came to 33.5% and the “% adhesion … vs no antibody, 5 nM mAb, no PMA” value came out at 12.1%.

In the case of B5, the “% adhesion of T cells … 0.5 nM mAb, no PMA” value is 113% and the “% adhesion … vs no antibody, 5 nM mAb, no PMA” value was 66.5%.

For another assay the target is unchanged. Nature of the assay: cell-based or functional assay. This is another data set of the same source.
B7: the “T cell adhesion to immobilized collagen IV, relative estimated IC50” value was > 5 nM.
